According to patent publication US20130109846A1 (published 2013):

Target: human CD28 (human, UniProt P10747 19-220)
Assay: cell-based or functional assay

| Binder | Luciferase assay (EC50) [nM] | MLR assay (EC50) [nM] |
| --- | --- | --- |
| 1h-110 (other) VL: DIQMTQSPSSLSASVGDRVTITCRASRDIGHMLNWYQQKPGKAPKLLIWFGSVLQSGVPSRFSGSGSGTDFTLTISSLQPEDFATYYCVQGRLRPPTFGQGTKVEIKR | 4100 |  |
| 1h-112 (other) VL: DIQMTQSPSSLSASVGDRVTITCRASQHINASLGWYQQKPGKAPRLLIYWASQLQSGVPSRFSGSGSGTDFTLTISSLQPEDFATYYCQQMVRTPFTFGQGTKVEIKR | 775 | 850 |
| 1h-116 (other) VL: DIQMTQSPSSLSASVGDRVTITCRASQSIYPFLEWYQQKPGKAPRLLIYFTSRLQSGVPSRFSGSGSGTDFTLTISSLQPEDFATYYCQQNATNPATFGQGTKVEIKR | 2500 | 2400 |
| 1h-239 (other) VL: DIQMTQSPSSLSASVGDRVTITCRASQSIYPFLEWYQQKPGKAPKLLIYFTSRLQSGVPSRFSGSGSGTDFTLTISSLQPEDFATYYCQQNATNPATFGQGTKVEIKR | 1300 |  |
| 1h-239-838 (other) VL: DIQMTQSPSSLSASVGDRVTITCQASQSIYPFLEWYQQKPGKAPKLLIYFTSRLARGVPSRFSGSGSGTDFTLTISSLQPEDFATYYCLQNVTNPATFSQGTRVEIKR | 4 | 3 |
| 1h-239-829 (other) VL: DIQMTQSPSSLSASVGDRVTITCRASQSIYPFLEWYQQKPGKAPKLLIYFSSRLASGVPSRFSGSGSGTDFTLTISSLQPEDFATYYCLQNVTNPATFSQGTKVEIKR | 10 | 11 |
| 1h-239-851 (other) VL: DIQMTQSPSSLSASVGDRVTITCRASRNIYPFLEWYQQKPGKAPKLLIYFTSRLQSGVPSRFSGSGSGTDFTLTISSLQPEDFATYYCLQNVTNPATFSQGTKVEIKR | 5 | 4 |
| 1h-239-849 (other) VL: DIQMTQSPSSLSASVGDRVTITCRASQSIYPFLEWYQQKPGKAPKLLIYFTSKLTRGVPSRFSGSGSGADFTLTISNLQPEDFATYYCLQNVTNPATFSQGTKVEIKR | 13 | 10 |
| 1h-239-817 (other) VL: DIQMTQSPSSLSASVGDRVTITCRASKPIYPFLEWYQQKPGKAPKLLIYFTSRLQSGVPSRFSGSGSGTDFTLTISSLQPEDFATYYCLQNVTNPATFSQGTKVEIKR | 7 | 9 |
| 1h-239-840 (other) VL: DIQMTQSPSSLSASVGDRVTITCRASQSIYPFLEWYQQKPGKAPKLLIYFASRLASGVPSRFSGSGSGTDFTLTISSLQPEDFATYYCLQNVTNPATFSQGTKVEIKR | 9 | 10 |
| 1h-239-859 (other) VL: DIQMTQSPSSLSASVGDRVTITCRASQSIYPFLEWYQQKPGKAPKLLIYFSSMLASGVPSRFSGSGSGTDFTLTISSLQPEDFATYYCLQNVTNPATFSQGTKVEIKR | 5 | 4 |
| 1h-239-832 (other) VL: DIQMTQSPSSLSASVGDRVTITCRASQSIYPFLEWYQQKPGKAPKLLIYFTSYLREGVPSRFSGSGSGTDFTLTISSLQPEDFATYYCLQNVTNPATFSQGTKVEIKR | 12 | 11 |
| 1h-239-804 (other) VL: DIQMTQSPSSLSASVGDRVTITCRASQSIYPFLEWYQQKPGKAPKLLIYFTSRLQSGVPSRFSGSGSGTDFTLTISSLQPEDFATYYCLQNVSMPATFSQGTKVEIKR | 5 | 3 |
| 1h-239-816 (other) VL: DIQMTQSPSSLSASVGDRVTITCRASRTIYPFLEWYQQKPGKAPKLLIYFTSRLQSGVPSRFSGSGSGTDFTLTISSLQPEDFATYYCLQNVTNPATFSQGTKVEIKR | 11 | 13 |
| 1h-239-828 (other) VL: DIQMTQSPSSLSASVGDRVTITCRASQSIYPFLEWYQQKPGKAPKLLIYFTSRLREGVPSRFSGSGSGTDFTLTISSLQPEDFATYYCLQNVTNPATFSQGTKVEIKR | 8 | 14 |
| 1h-239-857 (other) VL: DIQMTQSPSSLSASVGDRVTITCRASQSIYPFLEWYQQKPGKAPKLLIYFTSRLAAGVPSRFSGSGSGTDFTLTISSLQPEDFATYYCLQNVTNPAAFSQGTKVEIKR | 3 | 1 |

| Binder | Luciferase assay (EC50) [nM] | MLR assay (EC50) [nM] |
| --- | --- | --- |
| 1h-239-807 (other) VL: DIQMTQSPSSLSASVGDRVTITCRASRAIWPFLEWYQQKPGKAPKLLIYFTSRLQSGVPSRFSGSGSGTDFTLTISSLQPEDFATYYCLQNVTNPATFSQGTKVEIKR | 7 | 6 |
| 1h-239-824 (other) VL: DIQMTQSPSSLSASVGDRVTITCRASQSIYPFLEWYQQKPGKAPKLLIYFTSRLRQGVPSRFSGSGSGTDFTLTISSLQPEDFATYYCLQNVTNPATFSQGTKVEIKR | 9 | 6 |
| 1h-239-833 (other) VL: DIQMTQSPSSLSASVGDRVTITCRASQSIYPFLEWYQQKPGKAPKLLIYFTSRLRAGVPSRFSGSGSGTDFTLTISSLQPEDFATYYCLQNVTNPATFSQGTKVEIKR | 8 | 7 |
| 1h-239-856 (other) VL: DIQMTQSPSSLSASVGDRVTITCRASQSIYPFLEWYQQKPGKAPKLLIYFTSRLRHGVPSRFSGSGSGTDFTLTISSLQPEDFATYYCLQNVTNPATFSQGTKVEIKR | 3 | 1 |
| 1h-239-815 (other) VL: DIQMTQSPSSLSASVGDRVTITCRASQPIWPFLEWYQQKPGKAPKLLIYFTSRLQSGVPSRFSGSGSGTDFTLTISSLQPEDFATYYCLQNVTNPATFSQGTKVEIKR | 10 | 6 |
| 1h-239-837 (other) VL: DIQMTQSPSSLSASVGDRVTITCRASQSIYPFLEWYQQKPGKAPKLLIYFTSRLASGVPSRFSGSGSGTDFTLTISSLQPEDFATYYCLQNVTNPATFSQGTKVEIKR | 9 | 14 |
| 1h-239-819 (other) VL: DIQMTQSPSSLSASVGDRVTITCRASQAIWPFLEWYQQKPGKAPKLLIYFTSRLQSGVPSRFSGSGSGTDFTLTISSLQPEDFATYYCLQNVTNPATFSQGTKVEIKR | 13 | 11 |
| 1h-239-809 (other) VL: DIQMTQSPSSLSASVGDRVTITCRASRPIWPFLEWYQQKPGKAPKLLIYFTSRLQSGVPSRFSGSGSGTDFTLTISSLQPEDFATYYCLQNVTNPATFSQGTKVEIKR | 6 | 4 |
| 1h-239-847 (other) VL: DIQMTQSPSSLSASVGDRVTITCRASQSIYPFLEWYQQKPGKAPKLLIYFTSRLAYGVPSRFSGSGSGTDFTLTISSLQPEDFATYYCLQNVTNPATFSQGTKVEIRR | 8 | 5 |
| 1h-80 (other) VL: DIQMTQSPSSLSASVGDRVTITCRASQRIGSNLAWYQQKPGKAPKLLIYWASLLQSGVPSRFSGSGSGTDFTLTISSLQPEDFATYYCQQTRSAPFTFGQGTKVEIKR | 685 | 2000 |
| 1h-108-5 (other) VL: DIQITQSPSSLSASVGDRVTITCRASQYIGTALNWYQQKPGKAPELLIYRGSHLQSGVPSRFSGSGSGTDFTLTISSLQPEDFVTYYCQQIALTPYTFGQGTKVEIKR | 1900 |  |
| 1h-109 (other) VL: DIQMTQSPSSLSASVGDRVTITCRASQDIGASLLWYQQKPGKAPKLLIYFSSMLQSGVPSRFSGSGSGTDFTLTISSLQPEDFATYYCQQSGMRPFTFGQGTKVEIKR | 1000 |  |
| 1h-238 (other) VL: DIQMTQSPSSLSASVGDRVTITCRASQHINASLGWYQQKPGKAPKLLIYWASQLQSGVPSRFSGSGSGTDFTLTISSLQPEDFATYYCQQMVRTPFTFGQGTKVEIKR | 775 |  |
| 1h-203 (other) VL: DIQMTQSPSSLSASVGDRVTITCRASQPIGSVLAWYQQKPGKAPKLLIYFSSILQSGVPSRFSGSGSGTDFTLTISSLQPEDFATYYCQQALRSPFTFGQGTKVEIKR | 880 |  |
| 1h-207 (other) VL: DIQMTQSPSSLSASVGDRVTITCRASQYIGTSLAWYQQKPGKAPKLLIYHSSGLQSGVPSRFSGSGSGTDFTLTISSLQPEDFATYYCQQTALRPFTFGQGTKVEIKR | 2600 |  |
